# From patent publication US20260116987A1 (Gilead, published 2026)
# T1: Human CCR4 expressed on CHO-S cells (human, UniProt P51679 1-360)
# T1 construct: whole, on cells; also called CCR4-expressing CHO-S cells
# T1 sequence (looked up): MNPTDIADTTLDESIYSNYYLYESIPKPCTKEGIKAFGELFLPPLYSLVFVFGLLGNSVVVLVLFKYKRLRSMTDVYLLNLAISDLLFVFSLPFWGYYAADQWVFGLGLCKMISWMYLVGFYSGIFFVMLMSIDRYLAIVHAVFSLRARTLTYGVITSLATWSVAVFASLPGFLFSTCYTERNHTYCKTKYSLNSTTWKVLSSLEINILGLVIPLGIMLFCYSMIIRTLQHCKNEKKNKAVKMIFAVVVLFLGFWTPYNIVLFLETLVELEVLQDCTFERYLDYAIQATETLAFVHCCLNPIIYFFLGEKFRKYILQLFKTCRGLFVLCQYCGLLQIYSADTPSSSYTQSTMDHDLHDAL
# Assays:
# [1] = molecular target: T1, Human CCR4 expressed on CHO-S cells; assay: flow cytometry (PE-A), human CCR4-expressing CHO-S cells against parental CHO-S cells; antibody concentration not given
# [2] = molecular target: T2, Human CCR8 (C-C chemokine receptor type 8) expressed on CHO-S cells (human, UniProt P51685 1-355); assay: flow cytometry epitope binning, tandem format, human CCR8-overexpressing cells; competitor 1-K16
# T2 construct: also called huCCR8; human CCR8-expressing CHO-S cells
# T2 sequence (P51685 whole entry): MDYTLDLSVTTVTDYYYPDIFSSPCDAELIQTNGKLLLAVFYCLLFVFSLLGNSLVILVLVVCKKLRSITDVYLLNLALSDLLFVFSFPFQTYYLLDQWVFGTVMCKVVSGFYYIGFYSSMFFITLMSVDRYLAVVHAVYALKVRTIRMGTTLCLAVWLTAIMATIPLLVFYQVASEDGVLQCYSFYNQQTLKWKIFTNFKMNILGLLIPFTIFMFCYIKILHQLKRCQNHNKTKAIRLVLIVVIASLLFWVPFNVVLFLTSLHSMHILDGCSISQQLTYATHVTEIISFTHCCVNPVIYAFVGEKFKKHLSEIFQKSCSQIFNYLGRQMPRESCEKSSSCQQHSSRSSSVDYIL
# Method: (§1) A subset of antibodies against human CCR8 were epitope binned using flow cytometry method in tandem format. Briefly, one set of antibodies was biotinylated. Human CCR8-overexpressing cells were incubated at 4° C., with the non-biotinylated antibodies at 10 μg/mL for 1 hour, then without washing the biotinylated antibodies were added at 10 μg/mL. After a further 1-hour incubation, cells were washed three times and then stained with streptavidin-phycoerythrin (PE-strep) secondary antibody for 30 minutes. Binding competition was determined by detecting PE by flow cytometry. The response values were normalized as the % of the maximum binding of the individual antibody.
# [3] = molecular target: T2, Human CCR8 (C-C chemokine receptor type …); assay: flow cytometry epitope binning, tandem format, human CCR8-overexpressing cells; competitor 19-O07
# Method: as §1
# [4] = molecular target: T3, Human CCR8 on human CCR8-overexpression lipoparticles (human, UniProt P51685 1-355); assay: sequential format ELISA on human CCR8-overexpression lipoparticles; competitor 19-O07
# T3 sequence (P51685 whole entry): as above
# [5] = molecular target: T3, Human CCR8 on human CCR8-overexpression …; assay: sequential format ELISA on human CCR8-overexpression lipoparticles; competitor 6-B09
# [6] = molecular target: T2, Human CCR8 (C-C chemokine receptor type …); assay: flow cytometry epitope binning, tandem format, human CCR8-overexpressing cells; competitor 7-B16
# Method: as §1
# [7] = molecular target: T2, Human CCR8 (C-C chemokine receptor type …); assay: flow cytometry epitope binning, tandem format, human CCR8-overexpressing cells; competitor 6-B09
# Method: as §1
# [8] = molecular target: T2, Human CCR8 (C-C chemokine receptor type …); assay: flow cytometry epitope binning, tandem format, human CCR8-overexpressing cells; competitor 1-K17
# Method: as §1
# [9] = molecular target: T3, Human CCR8 on human CCR8-overexpression …; assay: sequential format ELISA on human CCR8-overexpression lipoparticles; competitor 7-B16
# [10] = molecular target: T1, Human CCR4 expressed on CHO-S cells; assay: flow cytometry
# [11] = molecular target: T3, Human CCR8 on human CCR8-overexpression …; assay: sequential format ELISA on human CCR8-overexpression lipoparticles; competitor 1-K17
# [12] = molecular target: T3, Human CCR8 on human CCR8-overexpression …; assay: sequential format ELISA on human CCR8-overexpression lipoparticles; competitor 1-K16
# [13] = molecular target: CCR8-NT.MBP (CCR8 N-terminus peptide aa 1-35 fused with maltose binding protein); assay: ForteBio Octet, antibody captured on AHC biosensors, CCR8-NT.MBP as analyte
binder,measurement,setting,value
"1-K17 (mouse hybridoma antibody) (antibody, mouse IgG1, kappa) heavy: QVQLQQPGAELVKPGASVKMSCKASGYTFTSYNMHWVKQTPGQGLEWIGAIYPGNGDTSYNQKFKGKATLTADKSSSTAYMHLSSLTSEDSAVYYCARKGGTPFAYWGQGTLLTVSAAKTTPPSVYPLAPGSAAQTNSMVTLGCLVKGYFPEPVTVTWNSGSLSSGVHTFPAVLESDLYTLSSSVTVPSSPRPSETVTCNVAHPASSTKVDKKIVPRDCGCKPCICTVPEVSSVFIFPPKPKDVLTITLTPKVTCVVVDISKDDPEVQFSWFVDDVEVHTAQTQPREEQFNSTFRSVSELPIMHQDWLNGKEFKCRVNSAAFPAPIEKTISKTKGRPKAPQVYTIPPPKEQMAKDKVSLTCMITDFFPEDITVEWQWNGQPAENYKNTQPIMNTNGSYFVYSKLNVQKSNWEAGNTFTCSVLHEGLHNHHTEKSLSHSPG light: DVVMTQTPLSLPVSLGDQASISCRSSQSLVHSNGNTYLYWYLQKPGQSPKLLIYKVSNRFSGVPDRFSGSGSGTDFTLKISRVEAEDLGVYFCSQSTHVPYTFGGGTKLEIKRADAAPTVSIFPPSSEQLTSGGASVVCFLNNFYPKDINVKWKIDGSERQNGVLNSWTDQDSKDSTYSMSSTLTLTKDEYERHNSYTCEATHKTSTSPIVKSFNRNEC",binding result,[1],no binding
"1-K16 (mouse hybridoma antibody) (antibody, mouse IgG1, kappa) heavy: EVQLVETGGGLVQPKGSLKLSCAASGFTFNINAMNWVRQAPGKGLEWVARIRSKSNNYATYYADSVKDRFTISRDDSQSMLYLQMNNLKTEDTAMYYCVRGGYGSSPYDMDYWGQGTSVTVSSAKTTPPSVYPLAPGSAAQTNSMVTLGCLVKGYFPEPVTVTWNSGSLSSGVHTFPAVLESDLYTLSSSVTVPSSPRPSETVTCNVAHPASSTKVDKKIVPRDCGCKPCICTVPEVSSVFIFPPKPKDVLTITLTPKVTCVVVDISKDDPEVQFSWFVDDVEVHTAQTQPREEQFNSTFRSVSELPIMHQDWLNGKEFKCRVNSAAFPAPIEKTISKTKGRPKAPQVYTIPPPKEQMAKDKVSLTCMITDFFPEDITVEWQWNGQPAENYKNTQPIMNTNGSYFVYSKLNVQKSNWEAGNTFTCSVLHEGLHNHHTEKSLSHSPG light: DIVMTQAAPSVPVTPGESVSISCRSSKSLLHSNGNTYLYWFLQRPGQSPQLLIYRMSNLASGVPDRFSGSGSGTAFTLRISRVEAEDVGVYYCMQHLEYPFTFGAGTKLELKRADAAPTVSIFPPSSEQLTSGGASVVCFLNNFYPKDINVKWKIDGSERQNGVLNSWTDQDSKDSTYSMSSTLTLTKDEYERHNSYTCEATHKTSTSPIVKSFNRNEC",binding result,[1],no binding
"6-B09 (mouse hybridoma antibody) (antibody, mouse IgG2a, kappa) heavy: QVQLKESGPGLVAPSQSLSITCTVSGFSLARYDISWIRQPPGKGLEWLGVIWTGGGTNYNSAFMSRLSISKDNSKSQVFLKMNGLQTDDTAIYYCVSIRYDETYWGQGTLVTVSAAKTTAPSVYPLAPVCGDTTGSSVTLGCLVKGYFPEPVTLTWNSGSLSSGVHTFPAVLQSDLYTLSSSVTVTSSTWPSQSITCNVAHPASSTKVDKKIEPRGPTIKPCPPCKCPAPNLLGGPSVFIFPPKIKDVLMISLSPIVTCVVVDVSEDDPDVQISWFVNNVEVHTAQTQTHREDYNSTLRVVSALPIQHQDWMSGKEFKCKVNNKDLPAPIERTISKPKGSVRAPQVYVLPPPEEEMTKKQVTLTCMVTDFMPEDIYVEWTNNGKTELNYKNTEPVLDSDGSYFMYSKLRVEKKNWVERNSYSCSVVHEGLHNHHTTKSFSRTPG light: QIVLTQSPAIMSASPGEKVTITCSASSSVIYMHWFQQKPGTSPKLWIYATSNLASGVPARFSGSGSGTSYSLTISRMEAEDAATYYCQQRSSYPLTFGAGTKLELKRADAAPTVSIFPPSSEQLTSGGASVVCFLNNFYPKDINVKWKIDGSERQNGVLNSWTDQDSKDSTYSMSSTLTLTKDEYERHNSYTCEATHKTSTSPIVKSFNRNEC",binding result,[1],no binding
"13-E16 (mouse hybridoma antibody) (antibody, mouse IgG2a, kappa) heavy: EVQLVETGGGLVQPKGSLKLSCAASGFTFSTNAMNWVRQAPGKGLEWIARIRSKSNNYATHYADSVKDRFTISRDDSQSILHLQMNNLKNEDTAMYYCVRDSHYYVSTYVGLAWFAYWGQGTLVTVSAAKTTAPSVYPLAPVCGDTTGSSVTLGCLVKGYFPEPVTLTWNSGSLSSGVHTFPAVLQSDLYTLSSSVTVTSSTWPSQSITCNVAHPASSTKVDKKIEPRGPTIKPCPPCKCPAPNLLGGPSVFIFPPKIKDVLMISLSPIVTCVVVDVSEDDPDVQISWFVNNVEVHTAQTQTHREDYNSTLRVVSALPIQHQDWMSGKEFKCKVNNKDLPAPIERTISKPKGSVRAPQVYVLPPPEEEMTKKQVTLTCMVTDFMPEDIYVEWTNNGKTELNYKNTEPVLDSDGSYFMYSKLRVEKKNWVERNSYSCSVVHEGLHNHHTTKSFSRTPG light: QIVLTQSPAIMSASPGEKVTITCSASSSVSYMHWFQQKPGTSPKLWIYSTSNLASGVPARFSGSGSGTSYFLTISRMEAEDAATYYCQQRSSYPYTFGGGTKLERKRADAAPTVSIFPPSSEQLTSGGASVVCFLNNFYPKDINVKWKIDGSERQNGVLNSWTDQDSKDSTYSMSSTLTLTKDEYERHNSYTCEATHKTSTSPIVKSFNRNEC",binding result,[1],no binding
"19-O07 (mouse hybridoma antibody) (antibody, human IgG1, also called 19-007) heavy: EVQLQQSVAELVRPGASVKLSCTASGFNIKNTQMHWVKQRPEQGLEWIGRIDPANGNTKYAPKFQGKATITGDTSSNTAYLQLSSLTSEDTAIYYCARFDYYYGSGDYAMDYWGQGTSVTVSSTTTAPSVYPLVPGCSDTSGSSVTLGCLVKGYFPEPVTVKWNYGALSSGVRTVSSVLQSGFYSLSSLVTVPSSTWPSQTVICNVAHPASKTELIKRIEPRIPKPSTPPGSSCPPGNILGGPSVFIFPPKPKDALMISLTPKVTCVVVDVSEDDPDVHVSWFVDNKEVHTAWTQPREAQYNSTFRVVSALPIQHQDWMRGKEFKCKVNNKALPAPIERTISKPKGRAQTPQVYTIPPPREQMSKKKVSLTCLVTNFFSEAISVEWERNGELEQDYKNTPPILDSDGTYFLYSKLTVDTDSWLQGEIFTCSVVHEALHNHHTQKNLSRSP light: not shown",binding result,[1],no binding
"6-B09 chimera (human IgG1) (antibody, also called 6-B09 chimeric antibody) heavy: not shown light: QIVLTQSPAIMSASPGEKVTITCSASSSVIYMHWFQQKPGTSPKLWIYATSNLASGVPARFSGSGSGTSYSLTISRMEAEDAATYYCQQRSSYPLTFGAGTKLELKRTVAAPSVFIFPPSDEQLKSGTASVVCLLNNFYPREAKVQWKVDNALQSGNSQESVTEQDSKDSTYSLSSTLTLSKADYEKHKVYACEVTHQGLSSPVTKSFNRGEC",% of the maximum binding,[2],102%
same,% of the maximum binding,[3],32%
same,ELISA epitope binning signal,[4],0.577
same,ELISA epitope binning signal,[5],0.512
same,% of the maximum binding,[6],89%
same,% of the maximum binding,[7],44%
same,% of the maximum binding,[8],94%
same,ELISA epitope binning signal,[9],0.776
same,binding result,[10],no binding
same,ELISA epitope binning signal,[11],0.82
same,ELISA epitope binning signal,[12],0.8
"7B16-H3C4.001 (CDR H3 combo mutant of 7-B16) (antibody, V domains shown) VH: EVQLVESGGGLVQPKGSLKLSCAASGFTFNTYAMNWVRQAPGKGLEWVARIRSKSNNYATYYADSVKDRFTISRDDSQSMLYLQMNNLKTEDTAMYYCARGLLRARFFDAWGAGTTVTVSS VL: DIVMTQAEPSVPVTPGESISISCRSSKSLLHSNGNTYLYWFLQRPGQSPQLLIYRMSNLASGVPDRFSGSGSGTAFTLRISRVEAEDVGVYYCMQHLEYPFTFGGGTKLEIKR",Octet Response (nm),[13],0.404 nm
"7B16-L2.001 (CDR L2 swapped mutant of 7-B16) (antibody, V domains shown, also called CDR swapped variant L2) VH: EVQLVESGGGLVQPKGSLKLSCAASGFTFNTYAMNWVRQAPGKGLEWVARIRSKSNNYATYYADSVKDRFTISRDDSQSMLYLQMNNLKTEDTAMYYCVRGLLRYRFFDVWGAGTTVTVSS VL: DIVMTQAEPSVPVTPGESISISCRSSKSLLHSNGNTYLYWFLQRPGQSPQLLIYLGSNRASGVPDRFSGSGSGTAFTLRISRVEAEDVGVYYCMQHLEYPFTFGGGTKLEIKR",Octet Response (nm),[13],0.205 nm
